Experimental data from PMC12697983 (PLOS Pathogens, 2025).

B1: 1C4 Fab (Fab, V domains shown)
VH: QIQLVQSGPELKKPGETVKISCKASGYTFTDYGLNWVKQAPGKGLKWMGWINTYSGEPTYNDEFRGRFAFSLETSTITAYLKINNLKNEDTATYFCARGGNWDWYFDVWGAGTTVTVSS
VL: DIVLTQSPATLSVTPGDNVSLSCRASQIISNNLHWYQQKSHESPRLLIKYASQSISGIPSRFSGSGSGTDFTLSINSVETEDFGMYFCQQSNTWPLTCGSGTKLELN
B2: 1C4 (murine monoclonal antibody, IgG format) (antibody, V domains shown)
VH: QIQLVQSGPELKKPGETVKISCKASGYTFTDYGLNWVKQAPGKGLKWMGWINTYSGEPTYNDEFRGRFAFSLETSTITAYLKINNLKNEDTATYFCARGGNWDWYFDVWGAGTTVTVSS
VL: DIVLTQSPATLSVTPGDNVSLSCRASQIISNNLHWYQQKSHESPRLLIKYASQSISGIPSRFSGSGSGTDFTLSINSVETEDFGMYFCQQSNTWPLTCGSGTKLELN

How the values were obtained:
[1] = target: SARS-CoV-2 Omicron BA.5 spike ectodomain trimer, prefusion-stabilised (BA.5-S6P) (SARS-CoV-2 Omicron BA.5, N440K | proline substitutions at 986 and 987 | proline substitutions at 986 and …); assay: cryo-EM structure; settings: both partners purified
[2] = target: spike protein on native SARS-CoV-2 virions (Victoria variant) (SARS-CoV-2, Victoria isolate (entry: …, UniProt P0DTC2, strain)); assay: cryo-EM imaging of virions; settings: one partner purified

Row | Binder | stoichiometry N [1] | binding result [2]
1 | B1 | 3 Fabs per spike trimer | 
2 | B2 |  | binds
